Experimental data reported in patent publication US20110086044A1, “Compositions and Methods to Inhibit HPV Infection” (University of Southern California, priority 2009, published 2011).

Key:
[1] = test system: ANXA2; assay: siRNA inhibition of ANXA2 in LC, ANXA2 protein expression by immunoblot; assay type: cell-based, human; conditions: Amaxa nucleofection
Procedure: (§1) FIGS. 8A & B are gel pictures showing downregulation of ANXA2 inhibits uptake of HPV16L1L2 VLP. A. LC were transfected using the Amaxa Nucleofector kit without siRNA (Untreated), with control siRNA or with two different ANXA2 siRNA sequences. The cells were incubated for 6 days before analysis of ANXA2 protein expression by immunoblot. GAPDH served as the loading control. One representative experiment of three is shown. B. LC were transfected using the Amaxa Nucleofector kit without siRNA (Untreated), with control siRNA or with ANXA2 siRNA #2. The cells were incubated for 6 days and exposed to CFDA-SE labeled HPV16L1L2 VLP for 15 min. Uptake was assessed by flow cytometry.
(§2) siRNA Inhibition of ANXA2 in LC and HPV16 VLP Uptake Assay. ANXA2 siRNA was synthesized at the USC Genomics Core (Los Angeles, Calif.) based on the sequences: ANXA2 siRNA #1 ([…])/([…]) (SEQ ID NO: 5); ANXA2 siRNA #2 ([…])/([…]) (SEQ ID NO: 6). Control siRNA was from (S76). ANXA2 or Control siRNA was transfected into LC using the Amaxa Human Dendritic Cell Nucleofector kit (Lonza) as directed by the manufacturer's instructions. The cells were incubated for 6 days before they were analyzed by an anti-ANXA2 immunoblot and used in an HPV16 VLP uptake assay. HPV VLP were labeled with CFDA-SE as described above. […] Finally, HPV16 VLP uptake by LC was assessed via flow cytometry.

[2] = test system: HPV16L1L2 VLP; assay: HPV16L1L2 VLP uptake assay in siRNA-transfected LC (flow cytometry); assay type: cell-based, human; conditions: 6 days after transfection, VLP 15 min; compared to untreated and control siRNA treated LC
Procedure: as §1, §2

[3] = biological target: T1, ANXA2 heterotetramer (Homo sapiens, UniProt P07355); assay: L2108-120 peptide pulldown assay from Langerhans cells (silver stain, mass spectrometry, immunoblot); assay type: binding
T1 construct: endogenous in cells; host or cells: human monocyte-derived Langerhans cells (from PBL of healthy donors)
T1 sequence (P07355 2-339 limits assumed): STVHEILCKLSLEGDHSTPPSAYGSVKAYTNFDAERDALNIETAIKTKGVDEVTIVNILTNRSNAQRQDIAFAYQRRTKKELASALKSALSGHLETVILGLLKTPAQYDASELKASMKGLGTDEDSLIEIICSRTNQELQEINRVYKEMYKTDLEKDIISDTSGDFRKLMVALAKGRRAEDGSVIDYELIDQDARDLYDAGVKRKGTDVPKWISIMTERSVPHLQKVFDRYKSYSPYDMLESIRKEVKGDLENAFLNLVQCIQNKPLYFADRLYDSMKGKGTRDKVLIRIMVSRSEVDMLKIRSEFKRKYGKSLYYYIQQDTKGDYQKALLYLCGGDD
T1 sequence (P60903 2-97 partner limits assumed): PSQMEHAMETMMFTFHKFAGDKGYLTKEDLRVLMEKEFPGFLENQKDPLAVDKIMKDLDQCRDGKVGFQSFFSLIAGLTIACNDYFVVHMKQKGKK
Procedure: LC were incubated with either no peptide or 50 μg/5×10^5 cells of 6×His-L2108-120 peptide and subsequently cross-linked with DTSSP. Cells were then lysed and mixed with a Ni-NTA agarose slurry overnight and ten fractions were eluted. Non-reduced eluates were electrophoresed, transferred to nitrocellulose and probed with an anti-ANXA2 antibody or an anti-6×His antibody, followed by a peroxidase-labeled secondary antibody. Antibody binding was detected with enhanced chemiluminescence.
A. LC were incubated with either no peptide or (6×)His-L2108-120 peptide and subsequently cross-linked with DTSSP. Cells were lysed and mixed with a Ni-NTA agarose slurry and eluted. Reduced eluate 5 was electrophoresed and silver stained. The unique band right above ˜39 kDa was isolated and analyzed by mass spectrometry. One representative experiment of two is shown. B. LC were incubated with either no peptide or (6×)His-L2108-120 peptide and subsequently cross-linked with DTSSP. Cells were then lysed and mixed with a Ni-NTA agarose slurry overnight and eluted. Eluates were then electrophoresed, transferred to nitrocellulose and probed with either an anti-ANXA2 or an anti-ANXA2 light chain antibody. […]. One representative experiment of two is shown.
L2108-120 Peptide Pulldown Assay. […] The eluates were collected and analyzed by non-reducing immunoblots and reduced silver stain gels. […]

[4] = test system: HPV16L1L2 VLP; assay: HPV16L1L2 VLP binding assay on Langerhans cells (flow cytometry, H16.V5 antibody); assay type: cell-based, human; conditions: increasing peptide concentrations (1-100 μg)/0.5×10^6 cells, 1 h at 4° C.
Procedure: LC were incubated with increasing concentrations of the L2108-120 peptide and subsequently incubated with HPV16L1L2 VLP. HPV16L1L2 VLP remaining on the surface of LC were detected using a L1 specific conformational antibody (H16.V5). Binding was assessed by flow cytometry.
HPV16L1L2 VLP Binding Assay. LC were incubated with the HPV16 L2 peptide aa 108-120 ([…] SEQ ID NO: 4) (Kawana et al. (2001) J. Virol. 75: 2331-6) at varying concentrations (1-100 μg)/0.5×10^6 cells for 1 h at 4° C. Subsequently, the LC were incubated with 0.25 μg of HPV16L1L2 VLP/treatment for 1 h at 4° C. and then incubated with an anti-L1 (H16.V5) antibody (a gift from Neil Christensen, Penn State University) at a concentration of 1:25,000 for 30 min at 4° C. The cells were then incubated with biotinylated anti-mouse-IgG2b at a concentration of 1:50 for 30 min at 4° C. Next, the HPV16L1L2 VLP/anti-L1/biotin treated cells were stained with streptavidin-FITC at a concentration of 1:50 for 30 min. The cells were washed between each incubation with 135 μl FACS buffer. In control experiments, cells were left untreated or probed with either peptide/anti-L1/biotin-strepavidin-FITC or VLP/anti-L1/biotin-strepavidin-FITC. Finally, HPV16L1L2 VLP binding to LC was assessed by flow cytometry. Binding is calculated as the MFI of the sample divided by the MFI of the untreated control multiplied by 100.

[5] = cited from earlier work
[6] = test system: HPV16L1L2 VLP; assay: HPV16 VLP uptake assay with SLPI: uptake of CFDA-SE labeled HPV16L1L2 VLP by Langerhans cells (flow cytometry); assay type: cell-based, human
Procedure: (§3) LC were left untreated or incubated with 30 μg human recombinant SLPI (R&D Systems) for 1 h at 4° C. Subsequently, the cells were washed and incubated with CFDA-SE-labeled HPV16 L1 VLP or HPV16 L1L2 VLP at 37° C. After 15 min, cells were washed at 4° C., then fixed with 1% paraformaldehyde and analyzed for intracellular CFDA-SE by flow cytometry. Percent of VLP uptake was calculated using the following equation: [(MFI experimental plus SLPI)−(MFI background)/[(MFI experimental untreated cells)−(MFI background)]×100. Shown is the average uptake of 3 experiments (±SEM). *p=0.04 compared to untreated LC.
(§4) FIGS. 7A & B are charts showing that SLPI inhibits the uptake of HPV16L1L2 VLP by LC. A. LC were incubated with increasing concentrations of SLPI, then incubated with CFDA-SE labeled HPV16L1L2 VLP for 15 min. Uptake of CFDA-SE labeled HPV16L1L2 VLP by LC was assessed by flow cytometry. The mean percentage of uptake ±SEM of three separate experiments is presented (*P<0.05 by a two-tailed, paired t-test, as compared to the negative control). […] Uptake of CFDA-SE labeled HPV16 VLP by LC was assessed by flow cytometry. […]
(§5) HPV16 VLP Uptake Assay with SLPI. […] Finally, HPV16 VLP uptake by LC was assessed via flow cytometry. Percent uptake is calculated as the mean fluorescent intensity (MFI) of the sample divided by the MFI of the untreated control multiplied by 100.

[7] = test system: HPV16L1 VLP; assay: HPV16 VLP uptake assay with SLPI: uptake of CFDA-SE labeled HPV16L1 VLP by Langerhans cells (flow cytometry); assay type: cell-based, human; conditions: SLPI 30 ug/ml (optimal concentration), VLP 15 min; Example 2
Procedure: as §3, §4, §5

Molecule: (CGGGAUGCUUUGAACAUUGAATT)/(UUCAAUGUUCAAAGCAUCCCGTT) (chemistry not given here) [ANXA2 siRNA #2]
- time of optimal ANXA2 protein knockdown post-transfection [1]: 6 days
- uptake of HPV16L1L2 VLP into LC [2]: significantly reduced the uptake of HPV16L1L2 VLP into LC

Molecule: LVEETSFIDAGAP (listed as Human papillomavirus) [L2108-120 peptide]
- proteins in pulldown eluates by immunoblot ([3]; anti-ANXA2 and anti-ANXA2 light chain antibodies): both ANXA2 and ANXA2 light chain were present
- HPV16L1L2 VLP bound to the LC surface [4]: significantly decreased numbers of HPV16L1L2 VLP bound to the LC surface

Molecule: CCOCc1nc2c(N)nc3ccccc3c2[nH]1 [CL097]
- water solubility [5]: ≤ 20 mg/mL

Molecule: (6×)His-L2108-120 peptide: 6×His-tagged HPV16 L2 aa 108-120 peptide used for pulldown (HHHHHHLVEETSFIDAGAP)
- protein pulled down from LC, unique silver-stain band identified by mass spectrometry ([3]; 50 μg/0.5×10^6 cells, DTSSP cross-linking, elution 5): predicted to be annexin A2 (ANXA2)

B1: SLPI: recombinant human secretory leukocyte protease inhibitor (R&D Systems), serine protease inhibitor and ligand of ANXA2; SEQ ID NO: 2 (protein, listed as Homo sapiens)
chain: MKSSGLFPFLVLLALGTLAPWAVEGSGKSFKAGVCPPKKSAQCLRYKKPECQSDWQCPGKKRCCPDTCGIKCLDPVDTPNPTRRKPGKCPVTYGQCLMLNPPNFCEMDGQCKRDLKCCMGMCGKSCVSPVKA
- uptake of HPV16L1L2 VLP into LC ([6]; 30 μg SLPI 1 h at 4° C., then VLP 15 min at 37° C., FIG. 2, 3 experiments): blocks HPV16 L1L2 VLP uptake into LC
- internalization of HPV16L1L2 VLP by LC ([6]; increasing concentrations (5-30 μg/ml) of SLPI, VLP 15 min, Example 2): LC internalized decreasing amounts of HPV16L1L2 VLP
- internalization of HPV16L1 VLP by LC [7]: did not inhibit HPV16L1 VLP uptake
